Assay [1] has as its system SP cells. The experiment in a line: FACS of Hoechst 33342 treated quail SP cells. The format is cell-based. To be noted: negative control in FACS sorting. The protocol: SP cells were isolated from quail by FACS isolation relying on Hoechst 33342 and propidium iodide to distinguish different cell populations. Cells were incubated in Hoechst 33342 at 37° C. for 60-90 minutes. Cells were then collected by centrifugation, washed in PBS and resuspended in a propidium iodide solution. As a negative control, a fraction of the primary cells were incubated in parallel with verapamil, which blocks Hoechst 33342 efflux. Sorting was performed on a FACS Advantage Plus flow cytometer and fluorescence of Hoechst 33342 and propidium iodide was measured on a linear scale (Goodell et al. (1996) J. Exp. Med. 183:1797; Goodell et al. (1997) Nat. Med. 3:1337 and Gussoni et al. (1999) Nature 401:390). The cells were then pelleted by centrifugation.

Assay [2] relates to APMEE explants. Description: APMEE explant culture, cardiac gene expression by RT-PCR. The format is cell-based, chick. To be noted: stage 9 APMEE explants; RCAS-Wnt-3a infection (n=24) or coculture with Rat-1/Wnt-1-HA cells (n=12).
Assay [3] concerns stage 7 chick embryos. Description: Cell pellet implantation into stage 7 chick embryos in New culture (heart looping, DiI tracing, in situ hybridization). The format is in vivo. Particulars: fibroblasts expressing Wnt-1 implanted into one side of heart-forming region, stage 7.
In assay [4] the test system is presumptive heart field of chick embryos. The experiment in a line: Implantation of Wnt-expressing cell pellets into the precardiac region of embryos in New culture. The format is in vivo. To be noted: cell pellets implanted at stage 3+ to 4; in situ hybridization. The source says: FIG. 15. Overexpression of Wnt genes blocks cardiogenesis in precardiac mesoderm. (A) Whole-mount in situ hybridization for Nkx-2.5 in chick embryos in which pellets of chick embryo dermal fibroblasts infected with either RCAS-mWnt-3a or control RCAS-AP were implanted into the precardiac region of embryos in New culture at stage 3^+ to 4. […] (B) Red line in A indicates the level of this section. […] (C) Ectopic Wnt expression suppresses cardiogenesis in anterior lateral plate mesoderm explants. Stage 5 anterior lateral plate mesoderm from the precardiac region was infected with either control virus (RCAS-GFP, lane 1; RCAS-AP, lane 3), or RCAS-Wnt-3a (lane 2) or RCAS-Wnt-8c (lane 4). Cultures were carried out in the presence of 200 ng/mL BMP-4 overnight followed by 48 h in 20 ng/mL BMP-4. Transcript levels were evaluated by RT-PCR.
As inhibition of Wnt signaling can induce cardiogenesis in the PLP mesoderm, we hypothesized that expression of Wnt signals in the heart field would have the opposite effect. To address this issue, we examined whether ectopic expression of Wnt-3a in the presumptive heart field affects the expression of Nkx-2.5 in vivo. […] However, these in vivo experiments affected all three germ layers. […]

Turning to `COc1ccc(CCN(C)CCCC(C#N)(c2ccc(OC)c(OC)c2)C(C)C)cc1OC` (stereo not shown) [verapamil], the “Hoechst 33342 dye retention of SP cells” value in assay [1] was “blocks the channel(s) responsible for low dye retention”.

B1: Wnt-1: delivered by Rat-1 cells stably overexpressing Wnt-1 (protein, UniProt P04426 28-370, looked up)
Proto-oncogene Wnt-1: ANSSGRWWGIVNIASSTNLLTDSKSLQLVLEPSLQLLSRKQRRLIRQNPGILHSVSGGLQSAVRECKWQFRNRRWNCPTAPGPHLFGKIVNRGCRETAFIFAITSAGVTHSVARSCSEGSIESCTCDYRRRGPGGPDWHWGGCSDNIDFGRLFGREFVDSGEKGRDLRFLMNLHNNEAGRTTVFSEMRQECKCHGMSGSCTVRTCWMRLPTLRAVGDVLRDRFDGASRVLYGNRGSNRASRAELLRLEPEDPAHKPPSPHDLVYFEKSPNFCTYSGRLGTAGTAGRACNSSSPALDGCELLCCGRGHRTRTQRVTERCNCTFHWCCHVSCRNCTHTRVLHECL
For B1, in assay [2], the “APMEE explants in which cardiogenesis was blocked” value turned out to be 50%. The “Nkx-2.5 expression in heart-forming region” value in assay [3] is “blocked subsequent expression of Nkx-2.5”. Also, the “Nkx-2.5 expression in the presumptive heart field” value in assay [4] is on record as “similarly extinguished endogenous Nkx-2.5 expression”.
